# In US20100136030A1 (published 2010):
# Assays:
# [1] = biological target: human OX40 receptor (CD134), full length, on the cell surface (human) (UniProt P43489); assay: cell-based or functional assay
# [2] = biological target: T1, murine OX40 (form not stated) (mouse, UniProt P47741 20-211, limits assumed); assay: not described (observation cited in Example 8)
# T1 sequence (looked up): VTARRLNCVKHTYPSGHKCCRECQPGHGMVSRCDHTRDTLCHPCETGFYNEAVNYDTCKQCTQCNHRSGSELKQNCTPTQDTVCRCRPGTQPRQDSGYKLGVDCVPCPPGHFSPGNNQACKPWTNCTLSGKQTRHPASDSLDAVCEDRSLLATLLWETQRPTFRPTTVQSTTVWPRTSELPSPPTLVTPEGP
# [3] = biological target: T2, human OX40 (form used in the assay not stated) (human, UniProt P43489 29-214, limits assumed); assay: OX40 binding titration with OD readout (assay format and form of OX40 not described); x axis 'Log concentration, µg/ml Fab'
# T2 sequence (looked up): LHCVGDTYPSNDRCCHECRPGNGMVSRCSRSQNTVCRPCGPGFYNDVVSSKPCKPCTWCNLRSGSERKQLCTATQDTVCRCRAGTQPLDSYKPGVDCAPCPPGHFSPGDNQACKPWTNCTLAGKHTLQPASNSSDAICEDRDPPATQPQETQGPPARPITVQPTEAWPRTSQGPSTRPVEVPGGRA
# [4] = biological target: T2, human OX40 (form used in the assay not …); assay: Biacore, format not described
Molecule,Kd [4] [nM],koff [4] [s⁻¹],kon [4] [M⁻¹ s⁻¹],other results
OX40 ligand (OX40L) on transfected mouse L fibroblasts,–,–,–,"CMP Mean (n: 3), proliferation, Th17 cells + OX40L L-cells [1]: 66000 CPM; IFN-γ Conc (pg/ml), Th1 cells + OX40L L-cells [1]: 33000 pg/mL; IL2 (pg/ml), OX40-Hut-78 + OX40L-L-cells, no antibody [1]: 138 pg/mL; IL13 (pg/ml), OX40-Hut-78 + OX40L-L-cells, no antibody [1]: 620 pg/mL; IL-17 Conc (pg/ml), TH-17, CD4+ cells/OX40L L-cells [1]: 2260 pg/mL; Survivin expression (%), Th17 cells + OX40L L-cells [1]: 49%; TH17 Survival (%), Th17 + OX40L-L-cells [1]: 39.2%; Th1 Survival (%), naïve CD4+ T-cells + OX40L L-cells [1]: 65.9%; Th17 proliferation, fold against culture without OX40L costimulation [1]: 4 fold; Th-17 Survival (%), Th17 cells + OX40L L-cells [1]: 84.3%"
"humanized anti-OX40 antibody A10(TH)hu336F (antibody, V domains shown, also called humanized clone A10(TH)hu336F; 'humanized' A10 molecule) VH: QVQLVQSGAEVKKPGASVKVSCKASGYTFTSYWMHWVRQAPGQGLEWMGEIHPKSGNSNYNEKFKGRVTMTRDTSTSTVYMELSSLRSEDTAVYYCARGPEYSNFWFAYWGQGTLVTVSS VL: DIVLTQSPTSLAVSLGQRATISCKASQTVDYDGDSYMHWYQQKPGQPPKLLIYAASNLESGVPDRFSGSGSGTDFTLTISSLQAEDVAVYYCHQSNEDPWTFGQGTKVEIK",–,–,–,binding result [2]: no binding; EC50 (read off the curve) [3]: ~9 ng/mL
"humanized A10 whole antibody F (A10 LC (TH) hu 336 / A10 humanized) (antibody, V domains shown, also called A10-F; humanized variant A10-F) VH: QVQLVQSGAEVKKPGASVKVSCKASGYTFTSYWMHWVRQAPGQGLEWMGEIHPKSGNSNYNEKFKGRVTMTRDTSTSTVYMELSSLRSEDTAVYYCARGPEYSNFWFAYWGQGTLVTVSS VL: DIVLTQSPTSLAVSLGQRATISCKASQTVDYDGDSYMHWYQQKPGQPPKLLIYAASNLESGVPDRFSGSGSGTDFTLTISSLQAEDVAVYYCHQSNEDPWTFGQGTKVEIK",1.12,0.000158,141000,–
"humanized A10 whole antibody C (A10 LC (TH) hu 336 / A10 L70) (antibody, V domains shown) VH: QVQLVQSGAEVKKPGASVKVSCKASGYTFTSYWMHWVRQAPGQGLEWMGEIHPKSGNSNYNEKFKGRVTLTRDTSTSTVYMELSSLRSEDTAVYYCARGPEYSNFWFAYWGQGTLVTVSS VL: DIVMTQSPDSLAVSLGERATINCKASQTVDYDGDSYMHWYQQKPGQPPKLLIYAASNLESGVPDRFSGSGSGTDFTLTISSLQAEDVAVYYCHQSNEDPWTFGQGTKVEIK",1.44,0.000151,116000,–

# Further molecules by falling Kd [4], results first:
Kd [4] [nM],koff [4] [s⁻¹],kon [4] [M⁻¹ s⁻¹],Molecule,other results
1.38,0.000179,131000,"humanized A10 whole antibody A (A10 LC (SH) / A10 L70) (antibody, V domains shown) VH: QVQLVQSGAEVKKPGASVKVSCKASGYTFTSYWMHWVRQAPGQGLEWMGEIHPKSGNSNYNEKFKGRVTLTRDTSTSTVYMELSSLRSEDTAVYYCARGPEYSNFWFAYWGQGTLVTVSS VL: DIVMTQSPDSLAVSLGERATINCKASQSVDYDGDSYMHWYQQKPGQPPKLLIYAASNLESGVPDRFSGSGSGTDFTLTISSLQAEDVAVYYCHQSNEDPWTFGQGTKVEIK",–
1.25,0.000191,151000,"humanized A10 whole antibody E (A10 LC (SN) / A10 humanized) (antibody, V domains shown) VH: QVQLVQSGAEVKKPGASVKVSCKASGYTFTSYWMHWVRQAPGQGLEWMGEIHPKSGNSNYNEKFKGRVTMTRDTSTSTVYMELSSLRSEDTAVYYCARGPEYSNFWFAYWGQGTLVTVSS VL: DIVMTQSPDSLAVSLGERATINCKASQSVDYDGDSYMNWYQQKPGQPPKLLIYAASNLESGVPDRFSGSGSGTDFTLTISSLQAEDVAVYYCHQSNEDPWTFGQGTKVEIK",–
1.21,0.00017,140000,"humanized A10 whole antibody D (A10 LC (SH) / A10 humanized) (antibody, V domains shown, also called A10-D; A10 D) VH: QVQLVQSGAEVKKPGASVKVSCKASGYTFTSYWMHWVRQAPGQGLEWMGEIHPKSGNSNYNEKFKGRVTMTRDTSTSTVYMELSSLRSEDTAVYYCARGPEYSNFWFAYWGQGTLVTVSS VL: DIVMTQSPDSLAVSLGERATINCKASQSVDYDGDSYMHWYQQKPGQPPKLLIYAASNLESGVPDRFSGSGSGTDFTLTISSLQAEDVAVYYCHQSNEDPWTFGQGTKVEIK",–
0.94,0.000156,170000,"humanized A10 whole antibody B (A10 LC (SN) / A10 L70) (antibody, V domains shown) VH: QVQLVQSGAEVKKPGASVKVSCKASGYTFTSYWMHWVRQAPGQGLEWMGEIHPKSGNSNYNEKFKGRVTLTRDTSTSTVYMELSSLRSEDTAVYYCARGPEYSNFWFAYWGQGTLVTVSS VL: DIVMTQSPDSLAVSLGERATINCKASQSVDYDGDSYMNWYQQKPGQPPKLLIYAASNLESGVPDRFSGSGSGTDFTLTISSLQAEDVAVYYCHQSNEDPWTFGQGTKVEIK",–
